Experimental data published in article PMC9637641, “Regulation of factor V by the anticoagulant protease activated protein C: Influence of the B-domain and TFPIα” (The Journal of Biological Chemistry, 2022).

Legend:
OG488-TFPIα-BR [1] = target: T1, OG488-TFPIα-BR (fluorescently labeled with OG488 (Oregon Green 488 maleimide)); assay: fluorescence polarisation; steady-state fluorescence anisotropy; FV species or APCi titrated (0–100 nM) into 25 nM OG488-TFPIα-BR and 50 μM PCPS vesicles in HBS/Ca2+/PEG, pH 7.4 (20 mM Hepes, 150 mM NaCl, 5 mM CaCl2, 0.1% PEG-8000), 25 °C; fit to a model for tight binding; conditions: both partners purified
T1 construct: The labelled form stood in the anisotropy titrations; also called TFPIα-BR fragment; BR fragment; source: expressed in SUMO-pro bacteria (Life-Sensors), purified, fluorescently labeled with OG488

OG488-TFPIα-BR [2] = target: T1, OG488-TFPIα-BR; assay: cell-based or functional assay

T1 sequence (P10646 268-293): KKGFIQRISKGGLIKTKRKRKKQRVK

B1: FV-short (natural protein)
chain: AQLRQFYVAAQGISWSYRPEPTNSSLNLSVTSFKKIVYREYEPYFKKEKPQSTISGLLGPTLYAEVGDIIKVHFKNKADKPLSIHPQGIRYSKLSEGASYLDHTFPAEKMDDAVAPGREYTYEWSISEDSGPTHDDPPCLTHIYYSHENLIEDFNSGLIGPLLICKKGTLTEGGTQKTFDKQIVLLFAVFDESKSWSQSSSLMYTVNGYVNGTMPDITVCAHDHISWHLLGMSSGPELFSIHFNGQVLEQNHHKVSAITLVSATSTTANMTVGPEGKWIISSLTPKHLQAGMQAYIDIKNCPKKTRNLKKITREQRRHMKRWEYFIAAEEVIWDYAPVIPANMDKKYRSQHLDNFSNQIGKHYKKVMYTQYEDESFTKHTVNPNMKEDGILGPIIRAQVRDTLKIVFKNMASRPYSIYPHGVTFSPYEDEVNSSFTSGRNNTMIRAVQPGETYTYKWNILEFDEPTENDAQCLTRPYYSDVDIMRDIASGLIGLLLICKSRSLDRRGIQRAADIEQQAVFAVFDENKSWYLEDNINKFCENPDEVKRDDPKFYESNIMSTINGYVPESITTLGFCFDDTVQWHFCSVGTQNEILTIHFTGHSFIYGKRHEDTLTLFPMRGESVTVTMDNVGTWMLTSMNSSPRSKKLRLKFRDVKCIPDDDEDSYEIFEPPESTVMATRKMHDRLEPEDEESDADYDYQNRLAAALGIRSFRNSSLNQEEEEFNLTALALENGTEFVSSNTDIIVGSNYSSPSNIDLGQMPSPSSPTLNDTFLSKEFNPLVIVGLSKDGTDYIEIIPKEEVQSSEDDYAEIDYVPYDDPYKTDVRTNINSSRDPDNIAAWYLRSNNGNRRNYYIAAEEISWDYSEFVQRETDIEDSDDIPEDTTYKKVVFRKYLDSTFTKRDPRGEYEEHLGILGPIIRAEVDDVIQVRFKNLASRPYSLHAHGLSYEKSSEGKTYEDDSPEWFKEDNAVQPNSSYTYVWHATERSGPESPGSACRAWAYYSAVNPEKDIHSGLIGPLLICQKGILHKDSNMPMDMREFVLLFMTFDEKKSWYYEKKSRSSWRLTSSEMKKSHEFHAINGMIYSLPGLKMYEQEWVRLHLLNIGGSQDIHVVHFHGQTLLENGNKQHQLGVWPLLPGSFKTLEMKASKPGWWLLNTEVGENQRAGMQTPFLIMDRDCRMPMGLSTGIISDSQIKASEFLGYWEPRLARLNNGGSYNAWSVEKLAAEFASKPWIQVDMQKEVIITGIQTQGAKHYLKSCYTTEFYVAYSSNQINWQIFKGNSTRNVMYFNGNSDASTIKENQFDPPIVARYIRISPTRAYNRPTLRLELQGCEVNGCSTPLGMENGKIENKQITASSFKKSWWGDYWEPFRARLNAQGRVNAWQAKANNNKQWLEIDLLKIKKITAIITQGCKSLSSEMYVKSYTIHYSEQGVEWKPYRLKSSMVDKIFEGNTNTKGHVKNFFNPPIISRFIRVIPKTWNQSIALRLELFGCDIY
For B1, the Kd (OG488-TFPIα-BR [1]) was 1.56 nM, the “stoichiometry N” value (OG488-TFPIα-BR [1]) was 1.18 mol/mol and the “Reduced fold change of inactivation by APC, +TFPIα-BR (kobs no BR divided by kobs +BR; % peak thrombin in TGA; 20 nM FV species, 250 nM BR fragment, 1 nM APC)” value (OG488-TFPIα-BR [2]) was 14.2 fold.
